Results on one molecule are retold here after article PMC11200690 (Antibodies, 2024).

The target of this test is T1, recombinant human HER2 ECD protein (Homo sapiens, UniProt P04626).
T1 construct: human epidermal growth factor receptor-2 (HER2, Erbb2), extracellular domain; also called HER2 antigen; Erbb2; source: bought: SinoBiological (10004-H08H)
As to the kind of experiment: BLI; scFv formats against HER2 ECD; set-up not told (Figure S2). The following applies: both partners purified. For orientation: Biolayer interferometry detects binding as a change in optical thickness at a sensor tip.

B1: Ab8 scFv (scFv, V domains shown)
VH: QVQLGESGGGVVRPGGSLRLSCAASGFTFSSYAMSWVRQAPGKGLEWVSAISGSGGSTYYADSVKGRFTISRENAKNSLYLQMNSLRAEDTAVYYCARRGGVWAFDIWGQGTMVTVSS
VL: DVVMTQSPLSLPVTPGEPASISCRSSQSLLHSNGINYLDWYLQKPGQSPQLLIYLGSSRASGVPDRFSGSGSGTDFTLKISRVEAEDVGVYFCMQALQTPLTFGQGTKLEIK
notes: as the VH of m1; as the VL of m1; also called scFv Ab8; ScFv of Ab8; source: HB2151 cells (pComb3x plasmid), purified (Ni-NTA); not shown: Flag, C-terminal, kept
As a reminder, the Kd is the free concentration of one partner at which half of the binding sites on the other are occupied at equilibrium, for simple one-to-one binding. As for B1, the Kd was found to be 9 nM.
